Measurements published in US20230340114A1 (IMMUNE ONC THERAPEUTICS, published 2023).

Key:
[1] = molecular target: T1, CD3 on Jurkat cells (UniProt P07766 23-207); assay: FACS on CD3+ Jurkat cells; estimated, curve did not reach a plateau
T1 construct: whole, on cells; on cells it stands in the whole CD3/TCR complex; also called CD3+ Jurkat cells

[2] = molecular target: T2, recombinant human LILRB4 protein (Sino Biological, cat #16742-H08H) (human, UniProt Q8NHJ6 22-259); assay: BLI (Gator Bio), bispecific captured on anti-human Fc probe, human LILRB4 in solution, 1:1 global fit
T2 construct: extracellular domain; also called LILRB4 recombinant protein (Sino Biological); Human LILRB4 ECD-his; not shown: his tag
Procedure: (§1) Binding affinities of second-generation bispecific antibodies were measured to recombinant human CD3e (Acro, cat #CDE-H5223), cyno CD3e (Acro, cat #CDE-C5226), human LILRB4 (Sino Biological, cat #16742-H08H), and cyno LILRB4 (Acro, cat #CDK-C5227) by Bio-Layer Interferometry (BLI) using an instrument from Gator Bio. Bispecific antibodies were captured using an immobilized anti-human Fc antibody (HFC) probe (Gator Bio, cat #PL168-160003) at 5 ug/mL load. […] Binding affinity constants were determined using a 1:1 fitting model (Global Fit) with Gator's data analysis software 1.6.1.1203, and the KD was calculated using the ratio Kdis/Kon.

[3] = molecular target: T3, recombinant cyno LILRB4 (Acro, cat #CDK-C5227) (cynomolgus monkey); assay: BLI (Gator Bio), bispecific captured on anti-human Fc probe, cyno LILRB4 in solution, 1:1 global fit
T3 construct: extracellular domain; also called cynomolgus monkey LILRB4 ECD-his recombinant protein (ACRObiosystems)
Procedure: as §1

[4] = molecular target: T4, human LILRB4 expressed on cells (human, UniProt Q8NHJ6 22-448); assay: cell-based or functional assay
[5] = molecular target: T4, human LILRB4 expressed on cells; assay: FACS on LILRB4+ THP-1 cells, Alexa 647 anti-human IgG Fc detection
Procedure: Binding of first and second generation bispecifics to CD3 or LILRB4 was measured by FACS on Jurkat cells or THP-1 cells. To measure binding of bispecifics to THP-1 cells, THP-1 cells were first incubated with human Fc blocker (BD Pharmingen Catalog No. 564220) at 10 ug per one million cells at room temperature for 10 minutes, followed by incubated with serially diluted bispecifics for 30 minutes on ice. Cells were washed twice with BSA staining buffer (BD Pharmingen Catalog No. 554657) and incubated with secondary Alexa 647 conjugated anti-human IgG Fc monoclonal antibody (Biolegend Catalog No. 409306) at 5 ug/mL for 30 minutes on ice. After final wash, 7-AAD was applied to exclude dead cells. To measure binding of first generation bispecifics to Jurkat cells, each bispecific was diluted in buffer including 1% BSA (5-fold dilution series, 400 nM highest concentration) and incubated with cells for 30 minutes at 4° C. Then bispecifics were stained with Alexa 647 anti-human IgG Fc at 5 ug/mL at 4° C. for 0.5 hours before analysis.

[6] = molecular target: recombinant human CD3e (Acro, cat #CDE-H5223) (human, UniProt P07766 23-126); assay: BLI (Gator Bio), bispecific captured on anti-human Fc probe, human CD3e in solution, 1:1 global fit
Procedure: as §1

[7] = molecular target: T5, recombinant cyno CD3e (Acro, cat #CDE-C5226) (cynomolgus monkey, UniProt Q95LI5 22-117); assay: BLI (Gator Bio), bispecific captured on anti-human Fc probe, cyno CD3e in solution, 1:1 global fit
T5 sequence (looked up): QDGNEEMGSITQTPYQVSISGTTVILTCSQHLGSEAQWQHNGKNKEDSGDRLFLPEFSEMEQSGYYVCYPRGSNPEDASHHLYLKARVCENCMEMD
Procedure: as §1

[8] = molecular target: T4, human LILRB4 expressed on cells; assay: FACS (Geo MFI) on THP-1 cells; panel assigned to THP-1 by the order in legend paragraph 86
[9] = molecular target: T6, flag-tagged cynomolgus monkey LILRB4 expressed on CHO-K1 cells (cynomolgus monkey); assay: FACS, CHO-stable cells expressing cyno LILRB4
T6 construct: whole, on cells; also called cyno LILRB4

[10] = molecular target: T4, human LILRB4 expressed on cells; assay: cell-based or functional assay; remark: listed apart in the source
[11] = molecular target: T4, human LILRB4 expressed on cells; assay: FACS (Geo MFI) on normal human monocytes; panel assigned to monocytes by the order in legend paragraph 86
[12] = molecular target: T4, human LILRB4 expressed on cells; assay: FACS, CHO-stable cells expressing human LILRB4

T1 sequence (P07766 23-207): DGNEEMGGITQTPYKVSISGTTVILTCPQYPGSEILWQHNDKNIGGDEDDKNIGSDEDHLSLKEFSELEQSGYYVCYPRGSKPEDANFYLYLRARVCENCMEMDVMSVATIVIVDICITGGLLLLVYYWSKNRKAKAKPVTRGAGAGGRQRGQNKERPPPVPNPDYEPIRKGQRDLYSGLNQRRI
recombinant human CD3e (Acro, cat #CDE-H5223), sequence (P07766 23-126 limits assumed): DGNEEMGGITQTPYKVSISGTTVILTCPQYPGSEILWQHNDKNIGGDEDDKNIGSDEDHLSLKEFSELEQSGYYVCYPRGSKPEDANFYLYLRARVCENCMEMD

B1: 4-3ab Q1E S91A (bispecific antibody, human IgG1, kappa, L234A L235A)
heavy 1: not shown
heavy 2: EVQLVESGGGLVQPGGSLRLSCAASGFSLSSSYWISWVRQAPGKGLEWIGSIDSGSVGITYYATWVKGRFTISRDNSKNTLYLQMNSLRAEDTAVYYCARHGDNWALDLWGQGTLVTVSSASTKGPSVFPLAPSSKSTSGGTAALGCLVKDYFPEPVTVSWNSGALTSGVHTFPAVLQSSGLYSLSSVVTVPSSSLGTQTYICNVNHKPSNTKVDKRVEPKSCDKTHTCPPCPAPEAAGGPSVFLFPPKPKDTLMISRTPEVTCVVVDVSHEDPEVKFNWYVDGVEVHNAKTKPREEQYNSTYRVVSVLTVLHQDWLNGKEYKCKVSNKALPAPIEKTISKAKGQPREPQVCTLPPSREEMTKNQVSLSCAVKGFYPSDIAVEWESNGQPENNYKTTPPVLDSDGSFFLVSKLTVDKSRWQQGNVFSCSVMHEALHNHYTQKSLSLSPG
light 1: DIVMTQSPDSLAVSLGERATINCKSSQSLLNSRTRKNYLAWYQQKPGQPPKLLIYWASTRQSGVPDRFSGSGSGTDFTLTISSLQAEDVAVYYCTQSHTLRTFGGGTKVEIKPDIQNPDPAVYQLRDSKSSDKSVCLFTDFDSQTQVSQSKDSDVYITDKCVLDMRSMDFKSNSAVAWSQKSDFACANAFQNSIIPEDTFFPAPESS
light 2: DIQMTQSPSTLSASVGDRVTITCRASQSISSWLAWYQQKPGKAPKLLIYKASTLASGVPSRFSGSGSGTEFTLTISSLQPDDFATYYCQHGYIRGDLDNVFGGGTKVEIKRTVAAPSVFIFPPSDEQLKSGTASVVCLLNNFYPREAKVQWKVDNALQSGNSQESVTEQDSKDSTYSLSSTLTLSKADYEKHKVYACEVTHQGLSSPVTKSFNRGEC
notes: Second-generation 1+1 bispecific, expressed in CHO-K1; also called Bispecific 2; 4-3ab (second generation)
- EC50 [1]: ~854000 pM
- Kd [2]: 840 pM
- Kd [3]: 9530 pM
- Autologous monocyte killing EC50 [4]: 26 pM
- T-cell cytotoxicity, MV4-11 EC50 [4]: 2.5 pM
- T-cell cytotoxicity, THP-1 EC50 [4]: 4.3 pM
- EC50 [5]: 1300 pM
- Kd [6]: 100 pM
- Kd [7]: 70 pM

B2: H7K3m5 (antibody, V domains shown)
VH: EVQLVESGGGLVQPGGSLRLSCAASGFSLSSSYWISWVRQAPGKGLEWIGSIDSGSVGITYYATWVKGRFTISRDNSKNTLYLQMNSLRAEDTAVYYCARHGDNWALDLWGQGTLVTVSS
VL: DIQMTQSPSTLSASVGDRVTITCRASQSISSWLAWYQQKPGKAPKLLIYKASTLASGVPSRFSGSGSGTEFTLTISSLQPDDFATYYCQHGYIRGDLDNVFGGGTKVEIK
notes: Full-length IgG; human IgG1 is used as its isotype control; Only variable regions are tied to the name; Wild type (fucosylated) form unless said otherwise; also called variant 9; K3m5 (N/S)
- EC50 (read off the curve) [8]: ~500 pM
- EC50 [9]: 1120 pM
- T-cell cytotoxicity against THP-1-GFP cells, mean EC50 (n=3) [10]: 208 pM
- EC50 (read off the curve) [11]: ~300 pM
- EC50 [12]: 415 pM

B3: 4ab3-4ab S91A (bispecific antibody, human IgG1, kappa, L234A L235A)
heavy 1: not shown
heavy 2: EVQLVESGGGLVQPGGSLRLSCAASGFSLSSSYWISWVRQAPGKGLEWIGSIDSGSVGITYYATWVKGRFTISRDNSKNTLYLQMNSLRAEDTAVYYCARHGDNWALDLWGQGTLVTVLEDLKNVFPPEVAVFEPSEAEISHTQKATLVCLATGFYPDHVELSWWVNGKEVHSGVCTDPQPLKEQPALQDSRYALSSRLRVSATFWQNPRNHFRCQVQFYGLSENDEWTQDRAKPVTQIVSAEAWGRASDKTHTCPPCPAPEAAGGPSVFLFPPKPKDTLMISRTPEVTCVVVDVSHEDPEVKFNWYVDGVEVHNAKTKPREEQYNSTYRVVSVLTVLHQDWLNGKEYKCKVSNKALPAPIEKTISKAKGQPREPQVCTLPPSREEMTKNQVSLSCAVKGFYPSDIAVEWESNGQPENNYKTTPPVLDSDGSFFLVSKLTVDKSRWQQGNVFSCSVMHEALHNHYTQKSLSLSPG
light 1: not shown
light 2: DIQMTQSPSTLSASVGDRVTITCRASQSISSWLAWYQQKPGKAPKLLIYKASTLASGVPSRFSGSGSGTEFTLTISSLQPDDFATYYCQHGYIRGDLDNVFGGGTKVEIKPDIQNPDPAVYQLRDSKSSDKSVCLFTDFDSQTQVSQSKDSDVYITDKCVLDMRSMDFKSNSAVAWSQKSDFACANAFQNSIIPEDTFFPAPESS
notes: Second-generation 2+1 bispecific, expressed in CHO-K1; also called Bispecific 1; 4ab3-4ab (second generation)
- EC50 [1]: ~257000 pM
- Kd [2]: 890 pM
- Kd [3]: 8820 pM
- Autologous monocyte killing EC50 [4]: 5.9 pM
- T-cell cytotoxicity, MV4-11 EC50 [4]: 0.034 pM
- T-cell cytotoxicity, THP-1 EC50 [4]: 0.5 pM
- EC50 [5]: 700 pM
- Kd [6]: 70 pM
- Kd [7]: 260 pM
